Source: the domain aggregation screens of Martell et al. (2025)

Assay: soluble fraction after stress (log2 fold change); higher = more stays soluble; pooled small domains, quantitative proteomics
Settings: stress: 75 degC
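Further: 20 min heating vs room temperature control held 20 min.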

Question: With “HMKIVFGHVKWFDIDKGFGFLVLEDEGGDVLLHANVLKNFGRTSVSEDTKIEFEFLETDKGRQVSTIYNIL” as the sequence, how does the “soluble fraction (log2)” value read?
Answer: -3.28

Question: Which “soluble fraction (log2)” value does the source give for “HMKIVQDIAFSDFLNEVEKDNVLDVNIKGDLINGNLADGRKFKTYTPYDPNLIEKLSNKNVTINVEPYN” here?
Answer: 0.512

Question: With “HMKKAENEKLNIPYDVTEFLASSIKDDIRMMEGAMVKLLALSSLTKQDITQSLAKRVIQDVLGSSA” as the sequence, how does the “soluble fraction (log2)” value read?
Answer: -0.209

Question: Which “soluble fraction (log2)” value does the source give for “HMKKAMIISTKRGTPAAELDKIIREFEAKGLSVTMIRGTDYNVFGLVGDTTVIDEKQVRANPYVENVQRV” here?
Answer: -0.157

Question: With “HMKKATYDVMVREALVSFKKKGATLQSIKKKIKADYAIEANATAVKSAIQKGMEAGSIRKSYDLYFFMD” as the sequence, how does the “soluble fraction (log2)” value read?
Answer: -2.8

Question: For “HMKKDDLKQINGIGTTIEKKLNEIDIYNFYQISNLSKEDIETISEKIKTFPGKIERDNWVGQAQELL”, which “soluble fraction (log2)” value is on record?
Answer: 0.0235

Question: Which “soluble fraction (log2)” value does the source give for “HMKKIFIDAPLDTMITIPKDTTHHLLTVFRHKMEKPVLVGGSDGRTGVYQIQDVVDGEASAKLVGDIQ” here?
Answer: 0.738

Question: For “HMKKISAKQQQILDYISSYSLEHGYPPSVREIGAEMGLRSPSTVHAHLKKLQEAGYLEPNEHKSRALTP”, which “soluble fraction (log2)” value is on record?
Answer: -0.146

Question: Which “soluble fraction (log2)” value does the source give for “HMKKITTANPLDINRATLAQLDTLPGIGPVTAERIIAYRSKVGRINSLDELKKISGLGGMKFEEIKPLLRV” here?
Answer: 0.0978

Question: For “HMKKKLPRYLQEQKYGNGMVFYRYNPTARYIDEGIVTRTNLGSDLSIAKKKANEFNKLIDAFLQQQSE”, which “soluble fraction (log2)” value is on record?
Answer: -1.16

Question: Which “soluble fraction (log2)” value does the source give for “HMKKMSFKEAFLKYVEIKDNPYNMESVKMLVSLQPLIVKAYSILGVDKVRRLNYVKTKIQDAIINGD” here?
Answer: -2.7

Question: Which “soluble fraction (log2)” value does the source give for “HMKKNLELGLLPHEVKSILGEPDFIDTITDIDGIRYDMWSYTKLNVTKRLYFEDLFLVRMEE” here?
Answer: -3.31

Question: Which “soluble fraction (log2)” value does the source give for “HMKKNNTTPIPKTLNYVNIKGLSNEAVERLNKHKPSTLGQASRLEGITPAATSLISIAIKKNQLLEKAES” here?
Answer: 0.0664

Question: Which “soluble fraction (log2)” value does the source give for “HMKKPAERRKELVDAAAHLFAEKGYENTSVRDILDAVGGAPGMFYYYFKSKQDIYVAVMEDF” here?
Answer: -3.71

Question: For “HMKKPANLISEDRMVEVLYDVIIINTAKGVNKQLLQNNINNPLNYIYRSHGIDSLQFAESNAYYTS”, which “soluble fraction (log2)” value is on record?
Answer: -0.563

Question: For “HMKKSGFFSAGDRIQLTDNKGRQYSFNITEGKEFHTHQGFIKHDDLIGMPEGSVVSINSTTGVVQKFMAF”, which “soluble fraction (log2)” value is on record?
Answer: 0.32

Question: Which “soluble fraction (log2)” value does the source give for “HMKKSIRIFELMKAKVAAEIFDQMILEGKIEDVFDIIVRLKDSNVSNIMKTMSVENSSRLVQKLERYNKD” here?
Answer: -3.12

Question: Which “soluble fraction (log2)” value does the source give for “HMKKVRIPDDPEEAYRKALKTAMNIVGYKDNTEFTLREKLSERGYSGETVDAVAEFMKSKGYV” here?
Answer: -0.0562

Question: For “HMKKVTMQDIANILNISRVTVWKVLNNQPGVSKQLRDQILLTAKETGYLKPGQEAEAYLEENNIYFEG”, which “soluble fraction (log2)” value is on record?
Answer: -0.272

Question: With “HMKKYDIKEAQEIAEINRIPGLVTTSHGRRVYFDPKIMQYVSEEQIVKKYGQKTVKMLDQWYVSNILNK” as the sequence, how does the “soluble fraction (log2)” value read?
Answer: -0.21

Question: Which “soluble fraction (log2)” value does the source give for “HMKKYLIIDAANEKIIFKIIDNNKTYTNDYENSRKNFDRFAVLLFNFLNKNMISFDTIDKAL” here?
Answer: -0.118

Question: Which “soluble fraction (log2)” value does the source give for “HMKLARGEFEIMAKFIKEISGISLEQNKTYLIESRLSDLAESEGVKTFSDFFFKAKFNKILKEKIIDAI” here?
Answer: -1.13

Question: For “HMKLHFTINGVHYTWYKQFIRGIQIRELGNIPREDELYLDLPDGWKDDFIEDDEIVDLARPGVEHFISRAK”, which “soluble fraction (log2)” value is on record?
Answer: -4.84

Question: For “HMKLIIVPNLVGQSRRSVEISLQQIGLRIDTVYTEFNPDYPKGTVAWQFPKSGDHIKKGMGLQITVSQG”, which “soluble fraction (log2)” value is on record?
Answer: -0.391

Question: With “HMKLINEDLNNEIVFEENKVNLLVIENKKKFVQFIQEIIKQINGDEGKFSLFDINTELKIHDKIDII” as the sequence, how does the “soluble fraction (log2)” value read?
Answer: 0.174

Question: For “HMKLIPLTDMRGQLRSGAPLPWGVRDAQGNLLLGKGHVIASDDMLEALLARGMFVDAEEAKAARG”, which “soluble fraction (log2)” value is on record?
Answer: 0.0132

Question: For “HMKLISVAVMRASDAAEIAGGTDSKTLMYRAGLGLFQSWDWHGKIDIVTGSGNNAGDGYVLALLL”, which “soluble fraction (log2)” value is on record?
Answer: 0.14

Question: Which “soluble fraction (log2)” value does the source give for “HMKLNKRQYAYQVIRSRILDGTYVPGQRIIIDQIAKEVNSSHIPVREAIHQLESEQLIDYEPNIGAIVKG” here?
Answer: -0.242

Question: With “HMKLSALRDKIKEHLLRQIQNGELQVGKTINLAALSRVTGISVTPIREALTQLEQAQVIQAVPNRGFVVA” as the sequence, how does the “soluble fraction (log2)” value read?
Answer: -0.418

Question: Which “soluble fraction (log2)” value does the source give for “HMKLSIGGTIEKLRRNKGLSHQQLANALGVTPDTVEKWEINAAYPDITLLSPIARLLGTTLDALLMF” here?
Answer: -1.77

Question: For “HMKLSKLTKPELDEIFRNANFTEEEEKVFWLLARGKSLEQISAKTFLPIATVNRRVKSIKDKIG”, which “soluble fraction (log2)” value is on record?
Answer: -0.436

Question: Which “soluble fraction (log2)” value does the source give for “HMKLTKPKLIQLIHIAKSKLNMDELSYRVLLDNLTGKTSTTKMTVGELLKVYESMKDKGFKPQV” here?
Answer: -0.993

Question: Which “soluble fraction (log2)” value does the source give for “HMKLTTRQTEIINIVKAEQPISGEKIAQNLGLSRATLRNDLSILTMTGLLDAKPKVGYFYTGQ” here?
Answer: -0.976

Question: With “HMKLVESALSILEEAVDRDFHGNLGDAARYFDIPYQTIYSWLKSRKRVPSLRALEPVLEKLGVSFTT” as the sequence, how does the “soluble fraction (log2)” value read?
Answer: -2.01

Question: Which “soluble fraction (log2)” value does the source give for “HMKLVTIPNVIGKTKEDAMKTLKDLGVTVTVETKESEKDDGTVIAQSKAEGTKLTAGENVTITVSKKKK” here?
Answer: ≥ 1.04

Question: For “HMKMATITKRTNPSGAVVYRAQVRVKREGYPPYSESRTFSKKSLATEWAKRREFEIETNPDLLFN”, which “soluble fraction (log2)” value is on record?
Answer: -1.76

Question: Which “soluble fraction (log2)” value does the source give for “HMKMLEINDNDSVGLKNLKTQYNHNQKVIENFQLEINKVINDGELPDKYLLDGMEKYQKLNMQIMSTIEKQ” here?
Answer: 0.0503

Question: Which “soluble fraction (log2)” value does the source give for “HMKMPNGYGSVYKLSGNRRKPWAARVTDGWVNDTKTKKSKQKYKFIGFYETRKEALLALADYNANP” here?
Answer: -2.05
